The values below come from PMC9192595, “Dynamic interaction of BRCA2 with telomeric G-quadruplexes underlies telomere replication homeostasis”.

In data set [1] the target is T1, BRCA2OB (human, UniProt P51587 2665-3197).
T1 sequence: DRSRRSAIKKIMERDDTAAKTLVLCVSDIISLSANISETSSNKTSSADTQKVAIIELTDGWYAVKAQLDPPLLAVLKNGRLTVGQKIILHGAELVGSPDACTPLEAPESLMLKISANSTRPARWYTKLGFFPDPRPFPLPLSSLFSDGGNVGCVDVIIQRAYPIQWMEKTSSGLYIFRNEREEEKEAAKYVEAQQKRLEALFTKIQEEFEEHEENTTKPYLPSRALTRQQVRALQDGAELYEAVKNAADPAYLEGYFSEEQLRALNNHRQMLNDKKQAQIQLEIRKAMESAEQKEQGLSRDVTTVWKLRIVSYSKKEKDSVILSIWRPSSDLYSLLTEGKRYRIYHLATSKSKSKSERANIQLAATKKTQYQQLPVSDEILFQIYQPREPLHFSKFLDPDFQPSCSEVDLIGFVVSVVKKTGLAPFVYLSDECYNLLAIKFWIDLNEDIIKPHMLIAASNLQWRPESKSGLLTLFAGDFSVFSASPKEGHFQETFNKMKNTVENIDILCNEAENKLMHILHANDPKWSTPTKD
Description: smFRET; 0.1 and 1 uM BRCA2OB; EMSA: 10 nM probe, 50 mM Tris-HCl pH 7.5, 100 mM KCl, 2 mM b-ME, 10% glycerol, probe pre-incubated 37 C, gel 4 C (RAD51: +1 mM MgCl2, 2 mM ATP); smFRET: 50 mM Tris-HCl pH 7.9, 100 mM KCl, 20 mM NaCl, 1 mM DTT, 0.1 mg/ml BSA, 9% glycerol, 37 C. The settings on record: protein: recombinant, tags: N-MBP, C-6xHis, label: 3' Cy3, stem 5' Cy5, 3' biotin.

Data set [2] addresses T1, BRCA2OB. Description: smFRET; 1 uM BRCA2OB; EMSA: 10 nM probe, 50 mM Tris-HCl pH 7.5, 100 mM KCl, 2 mM b-ME, 10% glycerol, probe pre-incubated 37 C, gel 4 C (RAD51: +1 mM MgCl2, 2 mM ATP); smFRET: 50 mM Tris-HCl pH 7.9, 100 mM KCl, 20 mM NaCl, 1 mM DTT, 0.1 mg/ml BSA, 9% glycerol, 37 C. The conditions noted are these: protein: recombinant; tags: N-MBP, C-6xHis; label: 3' Cy3; stem 5' Cy5, 3' biotin. In general terms: In EMSA bound probe runs differently from free probe, usually more slowly.

The target of data set [3] is T1, BRCA2OB. Description: EMSA; 100 mM KCl; EMSA: 10 nM probe, 50 mM Tris-HCl pH 7.5, 100 mM KCl, 2 mM b-ME, 10% glycerol, probe pre-incubated 37 C, gel 4 C (RAD51: +1 mM MgCl2, 2 mM ATP); smFRET: 50 mM Tris-HCl pH 7.9, 100 mM KCl, 20 mM NaCl, 1 mM DTT, 0.1 mg/ml BSA, 9% glycerol, 37 C. The settings on record: protein: recombinant, tags: N-MBP, C-6xHis, label: 5' 32P.
For data set [4], the target named is T1, BRCA2OB. Description: EMSA; EMSA: 10 nM probe, 50 mM Tris-HCl pH 7.5, 100 mM KCl, 2 mM b-ME, 10% glycerol, probe pre-incubated 37 C, gel 4 C (RAD51: +1 mM MgCl2, 2 mM ATP); smFRET: 50 mM Tris-HCl pH 7.9, 100 mM KCl, 20 mM NaCl, 1 mM DTT, 0.1 mg/ml BSA, 9% glycerol, 37 C. The settings on record: protein: recombinant; tags: N-MBP, C-6xHis; label: 5' 32P.
The target of data set [5] is T2, GST-B2-7 (human, UniProt P51587 2438-2824).
T2 sequence: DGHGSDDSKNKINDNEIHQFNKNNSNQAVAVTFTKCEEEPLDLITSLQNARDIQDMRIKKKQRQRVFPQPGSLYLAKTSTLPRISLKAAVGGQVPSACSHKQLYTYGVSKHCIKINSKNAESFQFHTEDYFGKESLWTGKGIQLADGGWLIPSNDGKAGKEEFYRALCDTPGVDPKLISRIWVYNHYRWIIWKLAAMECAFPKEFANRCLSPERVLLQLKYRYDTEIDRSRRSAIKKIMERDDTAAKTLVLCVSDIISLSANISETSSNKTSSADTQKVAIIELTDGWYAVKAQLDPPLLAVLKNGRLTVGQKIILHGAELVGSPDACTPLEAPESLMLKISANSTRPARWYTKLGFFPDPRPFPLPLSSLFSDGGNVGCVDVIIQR
As to the kind of experiment: EMSA; 150 mM KCl; EMSA: 10 nM probe, 50 mM Tris-HCl pH 7.5, 100 mM KCl, 2 mM b-ME, 10% glycerol, probe pre-incubated 37 C, gel 4 C (RAD51: +1 mM MgCl2, 2 mM ATP); smFRET: 50 mM Tris-HCl pH 7.9, 100 mM KCl, 20 mM NaCl, 1 mM DTT, 0.1 mg/ml BSA, 9% glycerol, 37 C. The settings on record: protein: recombinant; tags: GST; label: 32P.

Data set [6] addresses T3, GST-B2-9 (human, UniProt P51587 3189-3418).
T3 sequence: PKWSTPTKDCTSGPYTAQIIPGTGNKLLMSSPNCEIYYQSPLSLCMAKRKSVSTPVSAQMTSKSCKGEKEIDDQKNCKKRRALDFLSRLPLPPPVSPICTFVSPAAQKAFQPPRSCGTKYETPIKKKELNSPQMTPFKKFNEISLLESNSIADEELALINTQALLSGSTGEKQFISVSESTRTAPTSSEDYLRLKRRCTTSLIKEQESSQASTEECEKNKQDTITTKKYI
The description is as above. The settings on record: protein: recombinant; tags: GST; label: 32P.

In data set [7] the target is T4, GST-B2-8 (human, UniProt P51587 2780-3197).
T4 sequence: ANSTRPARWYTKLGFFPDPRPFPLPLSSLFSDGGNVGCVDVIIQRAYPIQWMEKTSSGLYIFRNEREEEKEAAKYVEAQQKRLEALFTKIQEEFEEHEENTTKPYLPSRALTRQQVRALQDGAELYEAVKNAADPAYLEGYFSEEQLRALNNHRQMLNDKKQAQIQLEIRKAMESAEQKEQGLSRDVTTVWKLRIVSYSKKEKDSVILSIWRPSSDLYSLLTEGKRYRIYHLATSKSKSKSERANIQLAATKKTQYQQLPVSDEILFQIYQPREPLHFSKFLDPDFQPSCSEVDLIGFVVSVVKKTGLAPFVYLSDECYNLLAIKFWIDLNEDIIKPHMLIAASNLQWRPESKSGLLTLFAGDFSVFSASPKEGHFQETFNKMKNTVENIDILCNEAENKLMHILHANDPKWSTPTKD
Described as above. The settings on record: protein: recombinant; tags: GST; label: 32P.

Setting [8] is: 29 bp stem with 3' G4 overhang 30 nt.

Residue numbers refer to the chain shown, from its start.

B1: TelG5 smFRET (mixed)
DNA 1: GCGTGGCACCGGTAATAGGAGATAGGAGAGGTTAGGGTTAGGGTTAGGGTTAGGGTTAG
DNA 2: TCTCCTATCTCCTATTACCGGTGCCACGC
modifications: 3' amino; stem 5' amino
In the case of B1, in data set [1] (setting [8]), the binding result is given as “binds”.

B2: TelG5CTA smFRET (mixed)
DNA 1: B1 DNA 1 with T32C, T38C, T44C, T50C, T56C
DNA 2: TCTCCTATCTCCTATTACCGGTGCCACGC
modifications: 3' amino; stem 5' amino
With B2, in data set [2], the binding result is “no binding”.

B3: TelG5TTT smFRET (mixed)
DNA 1: B1 DNA 1 with A34T, A40T, A46T, A52T, A58T
DNA 2: TCTCCTATCTCCTATTACCGGTGCCACGC
modifications: 3' amino; stem 5' amino
As for B3, the binding result in data set [1] (setting [8]) is “binds”.
Turning to AGTTAGAGTTAGAGTTAGAGTTAGAGTTAG (ssDNA) [TelG5GAG], the binding result in data set [3] (unfolded) is listed as “no binding”.
Turning to GCTAGGGCTAGGGCTAGGGCTAGGGCTAG (structured_DNA) [TelG-CTA], the binding result in data set [4] was “no binding”.

B4: TelG5:TelC5 (dsDNA)
DNA 1: GGTTAGGGTTAGGGTTAGGGTTAGGGTTAG
DNA 2: CTAACCCTAACCCTAACCCTAACCCTAACC
On to B4, for which the binding result in data set [3] (blunt) is on record as “no binding”.
In the case of GGTTAGGGTTAGGGTTAGGGTTAGGGTTAGGGTTAG (structured_DNA) [TelG6], in data set [3] (intramolecular G4), the binding result is on record as “binds”.
As to GCCCGCGGTTAGGGTTAGGGTTAGGGTTAGGGGTGAATTC (ssDNA) [telomeric G-rich strand (40 nt)], the figures for the binding result in data set [5], in data set [6] and in data set [7] were “no binding”, “no binding” and “binds”, respectively.
GGTTAGGGTTAGGGTTAG (ssDNA) [TelG3]: the binding result in data set [3] is given as “no binding”.
Consider CTAACCCTAACCCTAACCCTAACCCTAACC (ssDNA) [TelC5], for which the binding result in data set [3] was “no binding”.

B5: TelG5TT smFRET (mixed)
DNA 1: GCGTGGCACCGGTAATAGGAGATAGGAGAGGTTTGGGTTGGGTTGGGTTGGGTTTG
DNA 2: TCTCCTATCTCCTATTACCGGTGCCACGC
modifications: 3' amino; stem 5' amino
Regarding B5, the binding result in data set [1] (29 bp stem with 3' G4 overhang 27 nt) is “binds”.
As for GAATTCACCCCTAACCCTAACCCTAACCCTAACCGCGGGC (ssDNA) [telomeric C-rich strand (40 nt)], the binding result in data set [5], in data set [6] and in data set [7] was “no binding” in each case.
